Data taken from a protein production outcome set (Wang et al. 2014).

Test: label from the status in PepcDB records

Sequence	protein production
MDPAEMRYLEEEDGPLMKTIKGSITGFGAGTIYGTILATWKDVPRVERNVALPGLIRTLKMMGTHGLTFAAIGGVYIGVEQLVQNFRSKRDFYNGAIGGFVAGASVLGYRARSIPTAIAAGATLAVTSALIDSGGQTTRVDNGREYYPYTVEKRAEADS	not failed
MNDSAPRRVRVRAPELIGKGGWLNTGDKQYTLADLRGRIVVLDFWTFCCINCLHVLDELRELEEKHRDTVVIIGVHSPKFVHEAEHQAVVDAVERYGVEHPVLDDPELATWKQYAVRAWPTLVVIDPEGYVVAQHAGEGHAHAIAALVAELEAEHEAKGTLRRGDGPYVAPEPEPTVLRFPGKALLLPSGNFLVSDTTRHQLVELAADGESVVRRIGSGIRGFADGPADAASFSEPQGMTLLDEDVVVVADTVNHALRRLDLATGEVTTLAGTGRQWWQGSPASGPAREVDLSSPWDVAVFGGRVWIAMAGGAPAVDVRPGGGDGRGRGGHDERGAGRRTGLEHHHHHH	not failed
MNSIQIADETYVAADAARVSAAVADRCSWRRWWPDLRLQVTEDRADKGIRWTVTGALTGTMEIWLEPSMDGVLLHYFLHAEPTGVAAWQLARMNLARMTHHRRVAGKKMAFEVKTVLERSRPIGVSPVT	failed
MQVTLIQGLLIGLFALIAGIDFWLEGLYIFRPMIVCTVTGAILGNLTLGIIAGGLTELAFAGLTPVGGTQPPNPIMAGIMTVVLAYTTGKTPSTAIGLALPFSILMQYIILFYYSAFSVLTKKLDAYAANVETKKFTRLALLPTVLVALTYGVIAFLCVYGAQEPMKALVNSMPVWLSHGFEIAGNILPAVGFGLLLKSMLKAEYVPYLLLGFTAACFIKFGNLMPVAVIGISLAFIEFYHNKKQTDNEKKLKSMIESASGNGDDGDGI	failed
PNRRADDNATIRVTNLSEDTRETDLQELFRPFGSISRIYLAKDKTTGQSKGFAFISFHRREDAARAIAGVSGFGYDHLILNVEWAKPSTN	not failed
MKINLLQYIAGFLGFIALFYGIFSLIREYHFLEIKSLEVFVLIFFGFFAITYAFTDRIMIEKPFALTFAVILFYLSLITPLPLTNKILLITGGIIETQLASRKGVKGTVYIILGILTLIYFVYAHFINLSSILSLIGIGLSSLIIVLGNRDRKVKGISYLTYPVGIPLVVYGINGFFPLSINPIFIIVGLAIVLLNLLPSKGIPSSDYDLKLDQKLCNDIQRSECKDVIQIYKKYMVYIPQHCLDKVVLCTINQNDMQNFNLVINNSLARSVAERYVDKMSPEMLYSLALLSSRKKELLELACKKGYKKACEQTKPILDMKNWDPKVWVGKEIYNYNIVDIIGVGGTSYILKGEKDGNFYALKIPLINYLNNVMDLVGESSKLIELSNKSPYIVRLYAIYADQLDVKEILGGNPEIYYNKPPMLVIELMKGGSINDVINVKELVKSEYWKKIVFITTARIAEALETIHSEGYVHCDVKPQNVLFNEKLPPNARLAYDNLKNGKIIVKLADLGSAVKAGEKPFSYTPAYVSFDLVKSTAFGGVSPMADIYALGATVYKLLTGVTLNTNVMIEAMDKFEANKDIRYLDNSLYSTRNLDLLRKYVDKNTYLFISKMVDPDPNKRPTSKEIKEFFYFRV	failed
MMAACWFGCAPAAELHAYTEDVPPLNYLDNGNVKGYSTEVLQLVAREAGFNLTVEVLPWLRAYAKARDTAGGLLYTVVRTPEREAQFQWVGPIGSRRIYMYRLGPRGNIRVDAASDLTRYRNGVLTGSATASQLQALGLQSGLNLDLGQSDAVNLKKLLLKRVDLIAMLDWAMAWQLRLQRLPENTVAPAWLLDGKLQYWFALNPHTPPEQVAKLQAALDRIRADGRLQAIRRRYRDD	failed
MANVSLNKVDKQALVHQPNLLRECFALLVNAHYQTSPNDLLHLLRDDNSSVYLAMDKQNIIGVILTVEEGGLDDELIEAIQLGQRRPKGHLTPITIINQLGLVKVGKLITSRVMRIAVHPDLQGSGIGKRMLTLLEESVGAHVDYLSTSFGATDELIQFWQQAGYQSIRLGTMRDAASGCYSLLMVRQLANKSQ	failed
MSYAGDITPLQAWEMLSDNPRAVLVDVRCEAEWRFVGVPDLSSLGREVVYVEWATSDGTHNDNFLAELRDRIPADADQHERPVIFLCRSGNRSIGAAEVATEAGITPAYNVLDGFEGHLDAEGHRGATGWRAVGLPWRQG	not failed
MNWIILTIAGCFEVLFTFCMGKVKETTGTEMYLWFTGFLIATLISMLLLVKATHNLPIGTAYAVWTGIGAVGTVLVGILVFKEPAGFWRLFFIVMLIGSIIGLKMVSHG	failed
MADLTDALIDAALERGRSAHANEPRAAKARYDRSSARVIVDLENGCTFAFPPRLAQGLEGASDDQLCAVEILGQGYGLHWETLDVDLSLPGLMAGIFGTKAWMAKRAEPPPSAAKDAWSNLPR	not failed
MDDPFASLEPLAVAPSGPEGVRAQFDQMEDIPPPRPRQPPPAQEDPVEIEVTEDGVARAFTEKYGGTLRFDHDAGRWYHWQEDHWQADTTSRAFEYCRRLARLASEGAKHSLLSTARKASFAGGVERLARADPAHAVTQEAWDRDPWLVACPGETVDLRTGRSAVPRPEDGITRRVAVAPAAQETCPTWWQFLEDATGADSSVMRFLQQWAGYSLTGITREHTLVFLYGDGGNGKSVFINTLTGLLGDYAATAGMETFTASKSDRHPTDLAMLAGARLVAASETEEGRAWAESRIKQMTGGDRITARFMRRDFFTYTPQFKLTLVGNHRPALANVKPVEPWALVVPAELETVAQQVLAEIAAAAVSDVNPFSGTLELIVEPGLTSATGWYLIGNPALHDGLAHAFLDGQSAPRIETRAGWNTLGMEFRLTWAVDAKFIGTASWFRNPGASGCPRCRPRNAQRQGVALLCLARRSEVLDRLEHHHHHH	failed
MFSRVPAKSIARFRCVSESIHRRPDVTEQSLTKSMSRPRLLFALEVNKDLLFFSSPQPQNPYDNSSLVATPYKRFPKYLPTRICTTLGGLVFLQKWLRKKTRVICNPVSGDYITLPKVKATGVGESYFGFDPITKQFKVLCMTWSRYGTPNTHQVLTLETGKRLWRTIQDPILPHYRSFDRICINGVLYYGADFEESQSSKIVCFDFRFEKFSFINIADEGMFRGSYKWTLFNYKGKLGAHQYSRNGELVLWVLEDAENHKWSKSICILPPIVHNSRIVGVTGTGEIVFSPYACYMPSPFYIFFYNIQTKTCTRVHVKGFEEFKHNFTLLHTFLDFVEDTKFM	failed
KKLCGYLSKFGGKGPIRGWKSRWFFYDERKCQLYYSRTAQDANPLDSIDLSSAVFDCKADAEEGIFEIKTPSRVITLKAATKQAMLYWLQQLQMKRWEFHNSPPAP	not failed
MAFLIISLIIMLIGLLRLKINKRSIIGGIFLASGLILSLASLFFELLNLIYLYLPSGDFATLIIAYGILPLIFLLVCGYFIFNSKTMRTKEGKSATAKLSALFGLNLLIAFPALFMLFTFSTKTIPQIIWYILLYILLIDIILCFLFAAYILYSWMSQMIPLQKKIDYIIILGSGVRSEEVPPLLKSRLDKGIEYYQKNPTAKFVVSGGQGADEPVSEAFAMRKYLHSQNIPNHQILFEDKFTTTYENMLFSKRIINEDWSDKEMPPSIIFSTNNYHVLRGSLYAQRVKLKAQGVGGTHSTLFLTYGLNS	failed
ITIRDDILFQSGSAELTAGKREIAKEIGELFAQGKGTMEGIVSGHTDNVPISTSIYSSNWELSVARAVNFMEAIIQENSEVNPGEFSARGYGEFRPVAKNDIAANREKNRRVEIMVRPINRDTLDEDE	failed
MDTVTLARAFFGSSLAFHIIFATLGVGLSLMIFISEILYHWKKDSDYAIMAKRWTKAFAILLGVAIPTGTIVGVQISLLWPGFAKIVGQVISVPFQIEIFAFFLEALFMSIYVYAADKLPPFMRLISLFFVMLGATASAVLITSANTWMNTPAGFSMNPDGSVFNVDPWKAFFNPSFGTSAFHVVITAYATGAAVIASIAGFKLLKKNLSTREIAYHKKGLLLGLVVTFITGATMWLSGHESAIALHKHSPEKLASAEALFETTSHAPLSIGGVVDPNTLELNYALEIPNMLSLLVGLDPSTVVKGLKEFPQETWPPFYTHTLFNLMVGTAAFTFAVAAIALLYWYFVYRKKGTELPKWLLWGAAACGPIMMLGIEFGWIFSCSGRQPWTIYGMQRTVDASTRADFVGPLFVLFIILYIGLAILTVIVLRTFFRRHPLKNDLQHQGGDSHA	failed
MKLFFTDGQFAVAGYSRPDVPFLCDAEMELVDAPNRYLRYIATVKGRTRAANTWRTYGAALYEFFAFLEANGLAWDRVDQSQIAAWRDTMLERGCARSTVNQRLRTVDAFYNWAKSNGMTHSIPFDRTDVWVAKPRGFLAHVDASGDRFEANSLTVQTHKVTPQFLHLDRAIRFLDALTPYRMRLMGYLALLTGMRREEVVSMDCRVLPNPAGRDSNKQIPMHLDPSITPTKGEKDRTVMLPYDLAVALYQYFTFERSRLLAKHRAKFGIETTLLFLSQTGDPLSVNGLNNAFRRVSQKTGIWCTPHMLRHTFGTYELMRMSRQKTQTQALLWVRDRMGHNSITTTEIYVHAADLVEHDDVDGYHLDICRALAHGNPTSKT	failed
MDQLNKITPTGTEKVSESSCNKLEETCTKCGKNIYKKVTILGIDRIVKTMCECESKAWHEKRQHEEMLKKQNRLNELITNSLMDEKFRESNFENWDFNKGSRSMYNLGRRYADNFKECKQQGLGLLIYGSAGNGKTYLASAIANELLKQYIPVVCVSINGLLSRIQKTYNSWGKEAESDIIRSFINADLLIIDDLGTEKSSEWSRSMIYNIVDSRYRSKLPLIITSNLEINPSKRHGVLADQYHERTESRIFEMCTPVENTSKSIRIEEAKKKTELLRKILY	failed
MIDILPLLDWHHFVYFAIPAVLLLIVSALFALYQRRVWAICIAIAAACVLMFFIGGMWHSLERPPLRTMGETRLWYSFFVIIAGLIIYIRWKYRWILSFATVLSTVFMIINIAKPDIHNKTLMPALESPFFVPHVISYIFAYAMLGAALLVGGYFLFCKRKHKEVNAKVMMHTTDNLVYTGFAFLMTGLLLGAIWAKLAWGTYWNWDPKETWAAITVFSYLLYIHHRLHRPRAFAHSLVLLIVSFLFLQICWYGVNYLPSAKDSSIHTYTR	failed
MKIAVMGYGTIGSGVVEVLEINKEKIAKRAGEPIEVKYVLDLREFPGTPIENKIVHDYKVIAEDPEIGIVVETMGGVEPAFTFVKAMLEAGKQVATSNKNLVAAKGAELIKVARDHGVNFQFEASVGGGIPIIRPLNKCLTADEIEEITGILNGTTNYMLTKMTEEGADFDEVLKDAQDKGYAEKDPTADIEGYDPCRKIAILTSLVAGQQVDFEDIHCEGITKITPEDIKYAKAMHRAIKLLASSRKVGDSYTCLVAPYMIDDTHPLSGVNGVFNGVFLRGNVLGDAMFYGSGAGKLPTASAVVADVVDMTKHQNTNIYIDWKPEKLTLVSYDDSVNSFFVRTDSPKSEVEAVFGHVDYIEDVVDGEYAFTTGDMTEKDFADKASKINVINRIRL	failed
MRTSAFVPVLLFALLGALVGCSGGTELTYSGPEEAYKKGVAEMEEGDHQQAIRFFRAVFEYGRGNEWAPDARFKLAMAQRGLNKHLVAANEFQRFTQLYRNDELLPRAEFERANSYYLRSPSYRLDQSDSEQAISLFRLFIDRHPNHELVPEAEEKINELRAKLARKKYEAGRLYEQRDMWQAATTVYERAFDQYPDTPWADDALLGAVRTYIRYADRSVESKQAERYQKAIENYNRLTQLFPESTLLGRAEDLYSEAREKLDRAQAQQGEQSLAQEDASSGSN	failed
MDAETAESLKLLKNISLYTETYGCTYNAGDTEKLMEIARNQGCVPASSAEEADAILINTCVVIDKTEQHMYERLDLYAGKLLFVTGCLPPVAADVLRTRYPKIHIIDPALIHSCYMEVGTAHVGTNAVLQIARGCNGHCTYCITRLARGKLVSFSAEDIVRQAKSIVEAGATEIQLTAQDTSSWGLDRNDGLRLPDLLRQLCAIPGNFMIRIGMANPDTLLPILDDFLDALKDPKIFLFLHIPVQSGSDSVLRLMGRRYTSAQYEEICQRARKAFPEIRISTDYIAGFSGETDEDAAKSAEQIRRTRPGKVNITRFSVRPNTPAAKMKKIPEPIKKQRSRELTDAANEVYDANNEALIGHIMTAVVTEVVKAGSVTARDRTYQNIVIMENLEIGTEITVKITGHRRHYLIGERIVP	failed
